The target in assay [1] is T1, Human LIGHT stably expressed on EL4 cells (EL4-LIGHT) (human, UniProt O43557 1-240).
T1 construct: whole, on cells; also called membrane LIGHT
Nature of the assay: flow cytometry, EL4-LIGHT cells, against F19 and F23.

In assay [2] the target is T1, Human LIGHT stably expressed on EL4 …. Briefly: flow cytometry, EL4-LIGHT cells. On the procedure:
The EC50 of the 7 mAbs were calculated from binding to EL4-LIGHT cells (FIG. 1). […] Non-linear regression analysis was performed to determine the functional binding affinity measurement or EC50 for each mAb. A range of functional affinities was observed.

Assay [3] deals with T2, LIGHT without residues 81-84, stably expressed on EL4 cells (EL4-NC-LIGHT). Nature of the assay: cell-based or functional assay.
The target of assay [4] is T1, Human LIGHT stably expressed on EL4 …. Nature of the assay: KD calculated from the EC50 on EL4-LIGHT cells (Table 7).
Assay [5] concerns the target T2, LIGHT without residues 81-84, stably …. Briefly: cell-based or functional assay. This is another data set of the same source.
Assay [6] concerns the target T1, Human LIGHT stably expressed on EL4 …. Briefly: flow cytometry competition on EL4-LIGHT cells, co-incubation 40 min 4 C; blocked ligand DcR3-Fc-AF647 0.8 ug/ml; displacement is partial. How it is done: EL4-LIGHT cells were co-incubated with Alexa Fluor 647 conjugated DcR3-Fc (DcR3-Fc-AF647; 0.8 μg/ml) and graded concentrations (31 μg/ml to 128 μg/ml) of anti-membrane LIGHT antibodies (3B04, 03D12 and 02B111) for 40 min at 4° C. A control, of a mAb that binds both soluble and membrane LIGHT was included (F19 from EP2292663). The samples were washed three times and flow cytometry analysis was performed. Specific mean fluorescence intensity (MFI) obtained from the binding of DcR3-Fc-AF647 to LIGHT on EL4 cells were used to determine the levels of competition binding.
On the technique in general: In flow cytometry, cells or beads pass a laser one at a time.

Assay [7] addresses Full length LIGHT S193A on HEK293FF cells (Homo sapiens (Human), UniProt O43557 1-240). Nature of the assay: flow cytometry, HEK293FF, mAb at EC50.
Assay [8] deals with Full length LIGHT W198A on HEK293FF cells (Homo sapiens (Human), UniProt O43557 1-240). Briefly: flow cytometry, HEK293FF, mAb at EC50.
Chain of Full length LIGHT W198A on HEK293FF cells (O43557 whole entry W198A): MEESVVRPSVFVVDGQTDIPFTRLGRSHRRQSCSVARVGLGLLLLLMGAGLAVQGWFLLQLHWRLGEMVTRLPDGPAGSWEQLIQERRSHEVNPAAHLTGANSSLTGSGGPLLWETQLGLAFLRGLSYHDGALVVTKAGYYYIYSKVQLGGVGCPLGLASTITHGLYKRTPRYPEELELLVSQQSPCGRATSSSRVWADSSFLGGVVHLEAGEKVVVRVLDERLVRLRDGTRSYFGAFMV
Assay [9] addresses Full length LIGHT A190S on HEK293FF cells (Homo sapiens (Human), UniProt O43557 1-240). Briefly: flow cytometry, HEK293FF, mAb at EC50.
The target of assay [10] is Full length LIGHT T191A on HEK293FF cells (Homo sapiens (Human), UniProt O43557 1-240). Nature of the assay: flow cytometry, HEK293FF, mAb at EC50.
Chain of Full length LIGHT T191A on HEK293FF cells (O43557 whole entry T191A): as the sequence (O43557 whole entry W198A) above, with T191A, A198W counted along it
The target of assay [11] is Full length LIGHT R195A on HEK293FF cells (Homo sapiens (Human), UniProt O43557 1-240). Nature of the assay: flow cytometry, HEK293FF, mAb at EC50.
Chain of Full length LIGHT R195A on HEK293FF cells (O43557 whole entry R195A): as the sequence (O43557 whole entry W198A) above, with R195A, A198W counted along it
Assay [12] concerns the target Full length LIGHT G188A on HEK293FF cells (Homo sapiens (Human), UniProt O43557 1-240). Briefly: flow cytometry, HEK293FF, mAb at EC50.
In assay [13] the target is Full length LIGHT V196A on HEK293FF cells (Homo sapiens (Human), UniProt O43557 1-240). Nature of the assay: flow cytometry, HEK293FF, mAb at EC50.
In assay [14] the target is Full length LIGHT S192A on HEK293FF cells (Homo sapiens (Human), UniProt O43557 1-240). Nature of the assay: flow cytometry, HEK293FF, mAb at EC50.
Chain of Full length LIGHT S192A on HEK293FF cells (O43557 whole entry S192A): as the sequence (O43557 whole entry W198A) above, with S192A, A198W counted along it
The target of assay [15] is Full length LIGHT W197A on HEK293FF cells (Homo sapiens (Human), UniProt O43557 1-240). Nature of the assay: flow cytometry, HEK293FF, mAb at EC50.
Chain of Full length LIGHT W197A on HEK293FF cells (O43557 whole entry W197A): as the sequence (O43557 whole entry W198A) above, with W197A, A198W counted along it
For assay [16], the target named is Full length LIGHT R189A on HEK293FF cells (Homo sapiens (Human), UniProt O43557 1-240). Nature of the assay: flow cytometry, HEK293FF, mAb at EC50.
Chain of Full length LIGHT R189A on HEK293FF cells (O43557 whole entry R189A): as the sequence (O43557 whole entry W198A) above, with R189A, A198W counted along it
Assay [17] concerns the target Full length LIGHT S194A on HEK293FF cells (Homo sapiens (Human), UniProt O43557 1-240). Nature of the assay: flow cytometry, HEK293FF, mAb at EC50.

Here are results for two molecules from patent US20210284747A1 (CAPELLA BIOSCIENCE, published 2021).

Like-named read-outs stand apart in the source and are kept apart here.

Chain of Full length LIGHT G188A on HEK293FF cells (O43557 whole entry G188A): as the sequence (O43557 whole entry W198A) above, with G188A, A198W counted along it
T1 sequence (O43557 whole entry): as the sequence (O43557 whole entry W198A) above, with A198W counted along it
Chain of Full length LIGHT A190S on HEK293FF cells (O43557 whole entry A190S): as the sequence (O43557 whole entry W198A) above, with A190S, A198W counted along it
Chain of Full length LIGHT S194A on HEK293FF cells (O43557 whole entry S194A): as the sequence (O43557 whole entry W198A) above, with S194A, A198W counted along it

B1: 3B04 chimeric IgG4 mAb (antibody, V domains shown)
VH: QVQLQQPGAELVRPGASVTLSCKASGYTFTDYEMHWVKQTPVHGLEWIGEIDPETGDTAYSQKFKGKATLTADKSSSTAYMEFRSLTSEDSAVYYCSRETDYFFDYWGQGTTLTVSS
VL: DIQMTQTPASLSASVGETVTITCGASENIYGALNWYQRKQGKSPQLLIYGATNLADGMSSRFSGSGSGRQYSLKISSLHPDDFATYYCQNVLTTPWTFGGGTKLEIK
notes: also called Parental 3B04
Turning to B1, in [1], the “binding ratio, mAb to LIGHT trimer” value is 1 mAb per LIGHT trimer. The molecule also showed an EC50 in assay [2] of 0.095 nM. Moreover, the “IC50, inhibition of IL-8 secretion, HT-29 + EL4-NC-LIGHT cells” value in assay [3] was found to be 0.05 nM; in assay [5], 0.2 nM. The Kd in [4] was 0.1 nM. Further, the half-maximal inhibitory concentration (IC50) in assay [6] was determined as 0.02 µg/mL. Moreover, the “% of WT binding” value stood at 0% in assay [7]; 81% in [8]; 68% in [9]; 2% in [10]; 1% in [11]; 6% in assay [12]. In addition, the “% of WT binding” value in assay [13] is 80%; in [14], 88%; in [15], 0%; in assay [16], 0%; in assay [17], 0%.

B2: 3D12 chimeric IgG4 mAb (antibody, V domains shown)
VH: QVQLQQPGAELVRPGASVTLSCKASDYTFTDSEIHWVKQTPVHGLEWIGEIDPETGGTAYNQKFKGKATLTADKSSSTAYMELRSLTSEDSAVYYCSRETDYFFDYWGQGTTLTVSS
VL: DIQMTQSPASLSASVGETVTITCGASENIYGALNWYQRKQGKSPQLLIYGATNLADGMSSRFSGSGSGRQYSLKISSLHPDDVATYYCQNVLSTPWTFGGGTKLEIK
notes: Chimeric human IgG4 (S-to-P, L-to-E) with human CL, as m1; also called Parental 3D12; 03D12
Consider B2, for which, in assay [1], the “binding ratio, mAb to LIGHT trimer” value was determined as 1 mAb per LIGHT trimer. In assay [2], this molecule yielded an EC50 of 0.07 nM. Also, the results for the “IC50, inhibition of IL-8 secretion, HT-29 + EL4-NC-LIGHT cells” value in [3] and in assay [5] were 0.32 nM and 0.1 nM, respectively. Also, in [4], the Kd was 0.07 nM. Besides, the IC50 in assay [6] amounted to 0.031 µg/mL. For the same molecule, the “% of WT binding” value in assay [7] was 0%; in [8] it was 83%; in assay [9] it was 82%; in [10], 8%; in assay [11], 25%; in assay [12], 20%. Also, the “% of WT binding” value in assay [13] was found to be 70%; in assay [14], 84%; in assay [15], 1%; in [16], 1%; in assay [17], 2%.

What is called EC50 is the concentration at which the effect is half-maximal. The term Kd denotes the free concentration of one partner at which half of the binding sites on the other are occupied at equilibrium, for simple one-to-one binding. As usually defined, the IC50 is the concentration needed to halve the response being measured.
